{"source": "paper PMC11969024", "about": "(2025)", "parents": {"B1": {"name": "peptide HD2 (from tick evasin EVA4) / CCL1 (biotinylated, synthetic) (parent complex)", "chain 1": "EEDDYTAYAPLTCYFT", "chain 2": "KSMQVPFSRCCFSFAEQEIPLRAILCYRNTSSICSNEGLIFKLKRGKEACALDTVGWVQRHRKMLRHCPSKRK"}}, "data": [{"variants_of": "B1", "values": [{"variant": "chain 1 T16G", "enrichment": "1.22 log2 (difference from the parental peptide)"}, {"variant": "chain 1 T16H", "enrichment": "-0.232 log2 (difference from the parental peptide)"}, {"variant": "chain 1 T16V", "enrichment": "-0.26 log2 (difference from the parental peptide)"}, {"variant": "chain 1 T16W", "enrichment": "-0.962 log2 (difference from the parental peptide)"}, {"variant": "chain 1 T16E", "enrichment": "1.93 log2 (difference from the parental peptide)"}, {"variant": "chain 1 T16A", "enrichment": "1.5 log2 (difference from the parental peptide)"}, {"variant": "chain 1 T16M", "enrichment": "0.0746 log2 (difference from the parental peptide)"}, {"variant": "chain 1 T16S", "enrichment": "0.836 log2 (difference from the parental peptide)"}, {"variant": "chain 1 T16P", "enrichment": "1.67 log2 (difference from the parental peptide)"}, {"variant": "chain 1 T12N", "enrichment": "1.57 log2 (difference from the parental peptide)"}, {"variant": "chain 1 T12G", "enrichment": "-9.53 log2 (difference from the parental peptide)"}, {"variant": "chain 1 T12A", "enrichment": "-2.04 log2 (difference from the parental peptide)"}, {"variant": "chain 1 T12W", "enrichment": "0.647 log2 (difference from the parental peptide)"}, {"variant": "chain 1 F15C", "enrichment": "-6.07 log2 (difference from the parental peptide)"}, {"variant": "chain 1 F15V", "enrichment": "2.71 log2 (difference from the parental peptide)"}, {"variant": "chain 1 F15Y", "enrichment": "1.84 log2 (difference from the parental peptide)"}, {"variant": "chain 1 F15T", "enrichment": "1.39 log2 (difference from the parental peptide)"}, {"variant": "chain 1 F15H", "enrichment": "2.15 log2 (difference from the parental peptide)"}, {"variant": "chain 1 F15E", "enrichment": "-0.986 log2 (difference from the parental peptide)"}, {"variant": "chain 1 F15W", "enrichment": "-0.244 log2 (difference from the parental peptide)"}, {"variant": "chain 1 F15L", "enrichment": "2.03 log2 (difference from the parental peptide)"}, {"variant": "chain 1 T6W", "enrichment": "0.875 log2 (difference from the parental peptide)"}, {"variant": "chain 1 T6G", "enrichment": "3.41 log2 (difference from the parental peptide)"}, {"variant": "chain 1 T6P", "enrichment": "-5.02 log2 (difference from the parental peptide)"}, {"variant": "chain 1 T6Y", "enrichment": "-1.82 log2 (difference from the parental peptide)"}, {"variant": "chain 1 T6H", "enrichment": "-1.17 log2 (difference from the parental peptide)"}, {"variant": "chain 1 T6D", "enrichment": "4.62 log2 (difference from the parental peptide)"}, {"variant": "chain 1 Y8P", "enrichment": "-6.09 log2 (difference from the parental peptide)"}, {"variant": "chain 1 Y14Q", "enrichment": "-5.69 log2 (difference from the parental peptide)"}, {"variant": "chain 1 Y14M", "enrichment": "-4.74 log2 (difference from the parental peptide)"}, {"variant": "chain 1 Y14W", "enrichment": "-0.649 log2 (difference from the parental peptide)"}, {"variant": "chain 1 D4N", "enrichment": "-6.19 log2 (difference from the parental peptide)"}, {"variant": "chain 1 D4A", "enrichment": "-7.31 log2 (difference from the parental peptide)"}, {"variant": "chain 1 A7E", "enrichment": "0.457 log2 (difference from the parental peptide)"}, {"variant": "chain 1 A7R", "enrichment": "2.51 log2 (difference from the parental peptide)"}, {"variant": "chain 1 A7I", "enrichment": "-3.58 log2 (difference from the parental peptide)"}, {"variant": "chain 1 E2S", "enrichment": "-2.78 log2 (difference from the parental peptide)"}, {"variant": "chain 1 E2V", "enrichment": "-1.95 log2 (difference from the parental peptide)"}, {"variant": "chain 1 E2L", "enrichment": "-2.22 log2 (difference from the parental peptide)"}, {"variant": "chain 1 A9S", "enrichment": "-1.71 log2 (difference from the parental peptide)"}, {"variant": "chain 1 A9F", "enrichment": "-5.95 log2 (difference from the parental peptide)"}, {"variant": "chain 1 D3G", "enrichment": "-3.36 log2 (difference from the parental peptide)"}, {"variant": "chain 1 D3S", "enrichment": "-3.39 log2 (difference from the parental peptide)"}, {"variant": "chain 1 D3N", "enrichment": "-2.85 log2 (difference from the parental peptide)"}, {"variant": "chain 1 D3W", "enrichment": "-3.57 log2 (difference from the parental peptide)"}, {"variant": "chain 1 D3A", "enrichment": "-2.56 log2 (difference from the parental peptide)"}, {"variant": "chain 1 D3V", "enrichment": "-3.25 log2 (difference from the parental peptide)"}, {"variant": "chain 1 C13A", "enrichment": "-7.27 log2 (difference from the parental peptide)"}, {"variant": "chain 1 C13D", "enrichment": "-7.39 log2 (difference from the parental peptide)"}, {"variant": "chain 1 C13E", "enrichment": "-6.35 log2 (difference from the parental peptide)"}, {"variant": "chain 1 C13Y", "enrichment": "-5.39 log2 (difference from the parental peptide)"}, {"variant": "chain 1 C13V", "enrichment": "-4.73 log2 (difference from the parental peptide)"}, {"variant": "chain 1 C13P", "enrichment": "-6.51 log2 (difference from the parental peptide)"}, {"variant": "chain 1 Y5I", "enrichment": "-7.45 log2 (difference from the parental peptide)"}, {"variant": "chain 1 Y5F", "enrichment": "-4.11 log2 (difference from the parental peptide)"}, {"variant": "chain 1 Y5W", "enrichment": "0.92 log2 (difference from the parental peptide)"}, {"variant": "chain 1 E1W", "enrichment": "-2.32 log2 (difference from the parental peptide)"}, {"variant": "chain 1 E1P", "enrichment": "-3.07 log2 (difference from the parental peptide)"}, {"variant": "chain 1 E1K", "enrichment": "-5.3 log2 (difference from the parental peptide)"}, {"variant": "chain 1 E1Y", "enrichment": "-0.577 log2 (difference from the parental peptide)"}, {"variant": "chain 1 E1L", "enrichment": "-1.81 log2 (difference from the parental peptide)"}, {"variant": "chain 1 E1Q", "enrichment": "-1.24 log2 (difference from the parental peptide)"}, {"variant": "chain 1 E1D", "enrichment": "2.01 log2 (difference from the parental peptide)"}, {"variant": "chain 1 E1F", "enrichment": "-2.45 log2 (difference from the parental peptide)"}, {"variant": "chain 1 E1H", "enrichment": "-2.16 log2 (difference from the parental peptide)"}, {"variant": "chain 1 L11F", "enrichment": "-4.27 log2 (difference from the parental peptide)"}, {"variant": "chain 1 L11T", "enrichment": "-0.173 log2 (difference from the parental peptide)"}, {"variant": "chain 1 L11C", "enrichment": "-1.68 log2 (difference from the parental peptide)"}, {"variant": "chain 1 L11I", "enrichment": "2.18 log2 (difference from the parental peptide)"}, {"variant": "chain 1 L11Y", "enrichment": "0.82 log2 (difference from the parental peptide)"}, {"variant": "chain 1 L11D", "enrichment": "-8.31 log2 (difference from the parental peptide)"}, {"variant": "chain 1 L11V", "enrichment": "3.09 log2 (difference from the parental peptide)"}, {"variant": "chain 1 P10A", "enrichment": "-5.62 log2 (difference from the parental peptide)"}, {"variant": "chain 1 P10M", "enrichment": "-6.14 log2 (difference from the parental peptide)"}, {"variant": "chain 1 P10Q", "enrichment": "-4.62 log2 (difference from the parental peptide)"}]}]}
